Starred links: 1 amine or outer side, 2 acyl side, 3 side chain; linkers in the order of their positions; H or OH if unused. Positions of bridges follow the written chain, without caps; N, C: chain ends. Non-standard residues stand in square brackets, D forms with d. No end group written: not given here. Yde = (2S)-2-amino-3-[4-[2-(dimethylamino)ethoxy]phenyl]propanoic acid, CN(C)CCOc1ccc(C[C@H](N[*:1])C(=O)[*:2])cc1; Trp(7-Me) = Cc1cccc2c(C[C@H](N)C(=O)O)c[nH]c12; Trp(1-Me) = Cn1cc(C[C@H](N)C(=O)O)c2ccccc21; αMeLys(Me2) = CN(C)CCCC[C@](C)(N)C(=O)O; 2Nal = N[C@@H](Cc1ccc2ccccc2c1)C(=O)O; εLys = N[C@@H](CCCCN[*:1])C(=O)[*:2]; 3Pal = N[C@@H](Cc1cccnc1)C(=O)O; Dad = desamino-aspartamic acid; Lys(Me) = CNCCCC[C@H](N)C(=O)O; αMeL = CC(C)C[C@](C)(N)C(=O)O; Thp = NC1(C(=O)O)CCOCC1; Abu = CC[C@H](N)C(=O)O; Aib = CC(C)(N)C(=O)O; Ava = NCCCCC(=O)O; Sar = CNCC(=O)O
T1: IL-23 receptor on the surface of HEK-Blue IL-23 cells (UniProt Q5VWK5 24-629, limits assumed)
T1 sequence (looked up): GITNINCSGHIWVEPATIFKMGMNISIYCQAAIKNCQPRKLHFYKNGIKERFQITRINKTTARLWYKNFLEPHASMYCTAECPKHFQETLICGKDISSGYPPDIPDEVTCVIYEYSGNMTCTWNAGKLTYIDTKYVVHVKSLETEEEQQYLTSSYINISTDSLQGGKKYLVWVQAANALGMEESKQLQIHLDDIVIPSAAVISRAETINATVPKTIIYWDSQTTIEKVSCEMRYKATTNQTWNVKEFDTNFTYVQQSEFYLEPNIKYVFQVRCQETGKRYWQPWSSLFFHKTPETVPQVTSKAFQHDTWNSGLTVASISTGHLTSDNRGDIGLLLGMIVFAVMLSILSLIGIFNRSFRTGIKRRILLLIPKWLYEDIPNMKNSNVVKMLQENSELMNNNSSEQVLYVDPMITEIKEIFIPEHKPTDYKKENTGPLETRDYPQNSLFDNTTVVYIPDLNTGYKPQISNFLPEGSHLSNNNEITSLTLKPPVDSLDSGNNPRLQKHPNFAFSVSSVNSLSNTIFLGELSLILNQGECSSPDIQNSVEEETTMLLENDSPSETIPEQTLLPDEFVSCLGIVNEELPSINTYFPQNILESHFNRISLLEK

B1: Compound of SEQ ID NO: 106 (peptide)
peptide: [Dad]CK[Trp(7-Me)]K(Ac)C[Yde][2Nal][αMeL]KN[3Pal][Sar]-NH2
modifications: lactam (positions not given here); disulfide 2-6; not fully specified (residue 3, bridges); printed as Dad(§1)-C(§3)(@2)-K[aAc](@3)-Wim-K[Ac]-C(@2)-Yde-Nal-Mle-K(§1)-N-Pal-Sar-NH2; also: K[aAc]: Cys2 bonded to epsilon-NH2 of acetylated Lys3, acetyl presumably on alpha-amine
B2: Compound of SEQ ID NO: 155 (peptide)
peptide: [Dad]CNT[Trp(7-Me)]LC[Yde][2Nal][αMeLys(Me2)]KA[3Pal][Sar]-NH2
modifications: lactam (positions not given here); disulfide 2-7; not fully specified (bridges); printed as Dad(§1)-C(@2)-N-T-Wim-L-C(@2)-Yde-Nal-MKdm-K(§1)-A-Pal-Sar-NH2
B3: Compound of SEQ ID NO: 122 (peptide)
peptide: [Dad][Abu]K[Trp(7-Me)]K(Ac)C[Yde][2Nal][Thp]KN[3Pal][Sar]-NH2
modifications: lactam (positions not given here); thioether 2-6; not fully specified (residue 3, bridges); printed as Dad(§1)-Abu(§3)(@2)-K[aAc](@3)-Wim-K[Ac]-C(@2)-Yde-Nal-Thp-K(§1)-N-Pal-Sar-NH2; also: K[aAc]: Abu2 bonded to epsilon-NH2 of acetylated Lys3, acetyl presumably on alpha-amine
B4: Compound of SEQ ID NO: 126 (peptide)
peptide: [Ava]CK[Trp(1-Me)]K(Ac)C[Yde][2Nal][Thp]EN[3Pal][Sar]-NH2
modifications: lactam N-10; disulfide 2-6; not fully specified (residue 3); printed as Apt(§1)-C(§3)(@2)-K[aAc](@3)-Wme-K[Ac]-C(@2)-Yde-Nal-ThpE(§1)-N-Pal-Sar-NH2; also: K[aAc]: Cys2 bonded to epsilon-NH2 of acetylated Lys3, acetyl presumably on alpha-amine
B5: Compound of SEQ ID NO: 149 (peptide)
peptide: [Ava]CK[Trp(7-Me)]K(Ac)C[Yde][2Nal][αMeLys(Me2)]EN[3Pal][Sar]-NH2
modifications: lactam N-10; disulfide 2-6; not fully specified (residue 3); printed as Apt(§1)-C(§3)(@2)-K[aAc](@3)-Wim-K[Ac]-C(@2)-Yde-Nal-MKdm-E(§1)-N-Pal-Sar-NH2; also: K3 acetylated (K[aAc]), acetyl site not given here, ε-NH2 takes the Cys2 bond
B6: Compound of SEQ ID NO: 105 (peptide)
peptide: [Dad]CK[Trp(7-Me)]K(Ac)C[Yde][2Nal][Thp]KN[3Pal][Sar]-NH2
modifications: lactam (positions not given here); disulfide 2-6; not fully specified (residue 3, bridges); printed as Dad(§1)-C(§3)(@2)-K[aAc](@3)-Wim-K[Ac]-C(@2)-Yde-Nal-Thp-K(§1)-N-Pal-Sar-NH2; also: K[aAc]: Cys2 bonded to epsilon-NH2 of acetylated Lys3, acetyl presumably on alpha-amine
B7: Compound of SEQ ID NO: 151 (peptide)
peptide: [Dad]CNT[Trp(7-Me)]K(Ac)C[Yde][2Nal][αMeLys(Me2)]KN[3Pal][Sar]-NH2
modifications: lactam (positions not given here); disulfide 2-7; not fully specified (bridges); printed as Dad(§1)-C(@2)-N-T-Wim-K[Ac]-C(@2)-Yde-Nal-MKdm-K(§1)-N-Pal-Sar-NH2
B8: Compound of SEQ ID NO: 158 (peptide)
peptide: [Dad]C[εLys][Trp(7-Me)]LC[Yde][2Nal][αMeL]KN[3Pal][Sar]-NH2
modifications: disulfide 2-6; lactam 1-10; also: K3 acetylated (K[aAc]), acetyl site not given here, ε-NH2 takes the Cys2 bond
B9: Compound of SEQ ID NO: 8 (peptide)
peptide: [Ava]CNTWQC[Yde][2Nal][Aib]ENN-NH2
modifications: lactam (positions not given here); disulfide 2-7; not fully specified (bridges); printed as Apt(§1)-C(@2)-N-T-W-Q-C(@2)-Yde-Nal-Aib-E(§1)-N—N—NH2
B10: Compound of SEQ ID NO: 157 (peptide)
peptide: [Dad]CNT[Trp(7-Me)]K(Ac)C[Yde][2Nal][Aib]KN[3Pal][Sar]-NH2
modifications: lactam (positions not given here); disulfide 2-7; not fully specified (bridges); printed as Dad(§1)-C(@2)-N-T-Wim-K[Ac]-C(@2)-Yde-Nal-Aib-K(§1)-N-Pal-Sar-NH2
B11: Compound of SEQ ID NO: 150 (peptide)
peptide: [Dad]CNT[Trp(7-Me)]LC[Yde][2Nal][αMeLys(Me2)]KN[3Pal]-NH2
modifications: lactam (positions not given here); disulfide 2-7; not fully specified (bridges); printed as Dad(§1)-C(@2)-N-T-Wim-L-C(@2)-Yde-Nal-MKdm-K(§1)-N-Pal-NH2
B12: Compound of SEQ ID NO: 156 (peptide)
peptide: [Dad]CNT[Trp(7-Me)]K(Ac)C[Yde][2Nal][αMeLys(Me2)][Lys(Me)]N[3Pal][Sar]-NH2
modifications: lactam (positions not given here); disulfide 2-7; not fully specified (bridges); printed as Dad(§1)-C(@2)-N-T-Wim-K[Ac]-C(@2)-Yde-Nal-MKdm-Kme(§1)-N-Pal-Sar-NH2
B13: Compound of SEQ ID NO: 154 (peptide)
peptide: [Dad]CNT[Trp(7-Me)]LC[Yde][2Nal][αMeLys(Me2)]KN[3Pal][Sar]-NH2
modifications: lactam (positions not given here); disulfide 2-7; not fully specified (bridges); printed as Dad(§1)-C(@2)-N-T-Wim-L-C(@2)-Yde-Nal-MKdm-K(§1)-N-Pal-Sar-NH2

Target: T1, IL-23 receptor on the surface of …
Assay: cell-based or functional assay

Binder	pSTAT3 (nM)
B1	0.13 nM
B2	0.1 nM
B3	0.37 nM
B4	0.11 nM
B5	0.04 nM
XCNTWQCXXXDNG (not fully specified; Ahx(§1)-C(@2)-N-T-W-Q-C(@2)-Yae-Nal-Aib-D(§1)-N-G-NH2) [Compound of SEQ ID NO: 9]	65 nM
B6	0.1 nM
B7	0.06 nM
B8	0.39 nM
B9	5.54 nM
B10	0.06 nM
B11	0.13 nM
B12	0.08 nM
B13	0.08 nM

Source: patent US20260258084A1, “New Peptides as Selective IL-23 Receptor Antagonists” (Sanofi, priority 2022, published 2026)
